Data reported in US20260250318A1, “COMPOSITIONS AND METHODS FOR CROSSING THE BLOOD BRAIN BARRIER” (VOYAGER THERAPEUTICS, INC., priority 2022, published 2026).
Read-outs that look alike come from different tables or passages of the source.

Columns and labels:
[1] = tested on: HEK 293T cells transfected with pCMV6 negative control; type: cell-based; conditions: for Luciferase Activity (fold change relative to pCMV6 transfected cells): pCMV6 transfected cells (negative control, reference); for Luciferase Activity (RLU): Table 30, pCMV6 transfected cells
Method: Briefly, a transduction assay was performed in that HEK 293T cells were transfected via calcium phosphate transfection with a plasmid expressing ALPL, an AAVR positive control, or a pCMV6 negative control (250 ng or 500 ng of plasmid). AAVR is a universal AAV entry factor involved in AAV transduction. […] At 24-hours post-transduction, GFP expression and luciferase activity were measured to quantify and observe AAV cellular transduction. […] The TTM-002, TTM-006, TTM-018, and TTM-019 capsid variants all comprised the SPH motif immediately subsequent to position 455, numbered relative to SEQ ID NO: 138 and a positive residue in one of the next three residues subsequent to the SPH motif.
Three isoforms of ALPL exist, isoform 1 (Alkaline phosphatase, placental-like 2 (ALPPL2), NM_031313, which is incorporated by reference herein), isoform 2 (alkaline phosphatase, placental (ALPP), NM_001632, which is incorporated by reference herein), and isoform 3 (alkaline phosphatase, intestinal (ALPLI), NM_001631, which is incorporated by reference herein), that can also be expressed on cell surfaces via a GPI-anchor. […] The transduction assay described above was repeated with the three isoforms. HEK 293T cells were transfected via calcium phosphate transfection with a plasmid expressing ALPL, isoform 1 of ALPL, isoform 2 of ALPL, isoform 3 of ALPL, an AAVR positive control, or a pCMV6 negative control. At 24 hours post-transfection, the HEK 293T cells expressing the ALPL receptor were transduced with an AAV particle comprising the TTM-001 capsid variant or the TTM-002 capsid variant, expressing a Luc2-GFP payload. At 24-hours post-transduction, luciferase activity (RLU) was measured to quantify AAV cellular transduction.
To determine if deletion of the endoplasmic reticulum (ER) localization signal of ALPL affected transduction of the TTM-001 and TTM-002 capsid variants, HEK 293T cells were transfected via calcium phosphate transfection with a plasmid expressing ALPL, ALP with a deletion of the ER localization signal (ALPL transcript variant 2 that lacks the ER signal (NM_001127501, which is incorporated by reference herein)), or a pCMV6 negative control. At 24 hours post-transfection, the HEK 293T cells expressing the ALPL receptor were transduced with an AAV particle comprising the TTM-001 capsid variant, the TTM-002 capsid variant, or an AAV9 capsid control, expressing a GFP payload. At 24-hours post-transduction, luciferase activity (RLU) was measured to quantify AAV cellular transduction. Data was normalized to fold change in luciferase activity (RLU) compared to the pCMV6 control.
To determine if the TTM-001 and TTM-002 capsid variants could bind to both the human ALPL protein (NM_000478.6, which is incorporated by reference herein) and the mouse ALPL ortholog (NM_001287172.1, which is incorporated by reference herein), HEK 293T cells were transfected via calcium phosphate transfection with a plasmid expressing human ALPL, the murine ortholog of ALPL, or a pCMV6 negative control. At 24 hours post-transfection, the HEK 293T cells expressing the ALPL receptor were transduced with an AAV particle comprising the TTM-001 capsid variant, the TTM-002 capsid variant, or an AAV9 control capsid protein, expressing a Luc2-GFP payload. At 24-hours post-transduction, luciferase activity (RLU) was measured to quantify AAV cellular transduction.
AAV entry factor involved in AAV transduction), or a pCMV6 negative control.

brain [2] = experiment: Second cross-species screen, passage 2 in C57Bl/6 mice after first passage in NHPs; type: in vivo; conditions: P2 in C57Bl/6 after first passage in NHPs
Method: A second cross-species evolution screen was performed using an AAV capsid variant library with a modification in loop IV introduced as described above and passaging it once through NHPs (passage 1) and then subsequently injected it into two different strains of mice (passage 2), C57Bl/6 and BALB/c. The fold-enrichment for each variant in the brain of each mouse species was calculated by systematic NGS enrichment analysis following RNA recovery and RT-PCR amplification. The fold enrichment values in the second passage in mice were compared to those fold enrichment values from the second pass that was performed in NHPs as described above. […] Further, 10 of these 12 variants comprised the SPH motif and a positive residue in one of the next three subsequent residues (Table 10).

brain [3] = experiment: NGS fold enrichment of AAV capsid variant library, second passage in NHPs; type: in vivo, NHP; conditions: second passage (P2) in NHPs
Description: A TRACER based method as described in WO2020072683, WO 2021/202651, and WO2021230987, the contents of which are herein incorporated by reference in their entirety, was used to generate the AAV capsid variants described herein. An orthogonal evolution approach was combined with a high throughput screening by NGS. Briefly, the library of AAV capsid variants was generated using a sliding window approach, where 6 amino acid sequences were inserted into 8 different positions across loop IV of AAV9, including immediately subsequent to positions 453, 454, 455, 456, 457, 458, 459, and 460, relative to a reference sequence numbered according to SEQ ID NO: 138. The initial library was passed twice through non-human primates (NHP, 2-4 years of age). After the second passage (e.g., 28 days post injection into two NHPs), RNA was extracted from six brain regions. […]
A second cross-species evolution screen was performed using an AAV capsid variant library with a modification in loop IV introduced as described above and passaging it once through NHPs (passage 1) and then subsequently injected it into two different strains of mice (passage 2), C57Bl/6 and BALB/c. The fold-enrichment for each variant in the brain of each mouse species was calculated by systematic NGS enrichment analysis following RNA recovery and RT-PCR amplification. […]

[4] = Table 33, Cells transfected with pCMV6 (reference)
[5] = Table 34, Cells transfected with pCMV6 (reference)

Row | Molecule | Luciferase Activity (fold change relative to pCMV6 transfected cells) ([1]; Table 27) | Luciferase Activity (RLU) [1] | Fold change in luciferase activity relative to the pCMV6 control cells [1, 4] | Fold change in luciferase activity relative to the pCMV6 control cells [1, 5] | Fold enrichment over AAV9 in C57Bl/6 P2 (brain [2]) | Fold enrichment over AAV9 in NHPP2 (brain [3]) | Luciferase Activity (fold change relative to pCMV6 transfected cells) ([1]; Table 28) | Fold change in luciferase activity relative to the pCMV6 control cells ([1]; Table 35, Receptor pCMV6 (reference))
1 | TTM-001: AAV9 capsid variant comprising SPHSKA (SEQ ID NO: 941) in loop IV (protein) chain 1: MAADGYLPDWLEDNLSEGIREWWALKPGAPQPKANQQHQDNARGLVLPGYKYLGPGNGLDKGEPVNAADAAALEHDKAYDQQLKAGDNPYLKYNHADAEFQERLKEDTSFGGNLGRAVFQAKKRLLEPLGLVEEAAKTAPGKKRPVEQSPQEPDSSAGIGKSGAQPAKKRLNFGQTGDTESVPDPQPIGEPPAAPSGVGSLTMASGGGAPVADNNEGADGVGSSSGNWHCDSQWLGDRVITTSTRTWALPTYNNHLYKQISNSTSGGSSNDNAYFGYSTPWGYFDFNRFHCHFSPRDWQRLINNNWGFRPKRLNFKLFNIQVKEVTDNNGVKTIANNLTSTVQVFTDSDYQLPYVLGSAHEGCLPPFPADVFMIPQYGYLTLNDGSQAVGRSSFYCLEYFPSQMLRTGNNFQFSYEFENVPFHSSYAHSQSLDRLMNPLIDQYLYYLSKTINGSGSPHSKAQNQQTLKFSVAGPSNMAVQGRNYIPGPSYRQQRVSTTVTQNNNSEFAWPGASSWALNGRNSLMNPGPAMASHKEGEDRFFPLSGSLIFGKQGTGRDNVDADKVMITNEEEIKTTNPVATESYGQVATNHQSAQAQAQTGWVQNQGILPGMVWQDRDVYLQGPIWAKIPHTDGNFHPSPLMGGFGMKHPPPQILIKNTPVPADPPTAFNKDKLNSFITQYSTGQVSVEIEWELQKENSKRWNPEIQYTSNYYKSNNVEFAVNTEGVYSEPRPIGTRYLTRNL chain 2: GSGSPHSKAQNQQT | 1 fold | 5,212 RLU | 1 fold | 1 fold | 14.48 fold | 56.33 fold |  | 
2 | TTM-002: AAV9 capsid variant comprising HDSPHK (SEQ ID NO: 2) in loop IV (protein) chain 1: MAADGYLPDWLEDNLSEGIREWWALKPGAPQPKANQQHQDNARGLVLPGYKYLGPGNGLDKGEPVNAADAAALEHDKAYDQQLKAGDNPYLKYNHADAEFQERLKEDTSFGGNLGRAVFQAKKRLLEPLGLVEEAAKTAPGKKRPVEQSPQEPDSSAGIGKSGAQPAKKRLNFGQTGDTESVPDPQPIGEPPAAPSGVGSLTMASGGGAPVADNNEGADGVGSSSGNWHCDSQWLGDRVITTSTRTWALPTYNNHLYKQISNSTSGGSSNDNAYFGYSTPWGYFDFNRFHCHFSPRDWQRLINNNWGFRPKRLNFKLFNIQVKEVTDNNGVKTIANNLTSTVQVFTDSDYQLPYVLGSAHEGCLPPFPADVFMIPQYGYLTLNDGSQAVGRSSFYCLEYFPSQMLRTGNNFQFSYEFENVPFHSSYAHSQSLDRLMNPLIDQYLYYLSKTINGHDSPHKSGQNQQTLKFSVAGPSNMAVQGRNYIPGPSYRQQRVSTTVTQNNNSEFAWPGASSWALNGRNSLMNPGPAMASHKEGEDRFFPLSGSLIFGKQGTGRDNVDADKVMITNEEEIKTTNPVATESYGQVATNHQSAQAQAQTGWVQNQGILPGMVWQDRDVYLQGPIWAKIPHTDGNFHPSPLMGGFGMKHPPPQILIKNTPVPADPPTAFNKDKLNSFITQYSTGQVSVEIEWELQKENSKRWNPEIQYTSNYYKSNNVEFAVNTEGVYSEPRPIGTRYLTRNL chain 2: GHDSPHKSGQNQQT | 1 fold | 2,894 RLU | 1 fold | 1 fold | 27.15 fold | 33.96 fold | 1 fold | 1.0 fold
